Key:
HLA-A2 (HLA-A*0201) [1] = biological target: T1, HLA-A2 (HLA-A*0201) (human); assay: assembly assay: HLA-A2 stabilisation, T2 cells, IP, IEF gel
T1 construct: MHC class I molecule to which the peptide is added in the assembly assay (T2 cells); folded molecules are immunoprecipitated with conformation-dependent antibody

HLA-B35 [2] = biological target: HLA-B35 (human); assay: assembly assay: HLA-B35 stabilisation; against sur46-54
HLA-B35 [3] = biological target: HLA-B35 (human); assay: assembly assay: HLA-B35 stabilisation, T2-B35 lysate, W6/32 IP, IEF gel
HLA-A3 (HLA-A*0301) = HLA-A3 (HLA-A*0301) (human); assay: assembly assay: HLA stabilisation, TAP-deficient cell lysate, W6/32 IP, IEF gel
HLA-A11 (HLA-A*1101) = HLA-A11 (HLA-A*1101) (human); assay: as above
HLA-A1 (HLA-A*0101) = HLA-A1 (HLA-A*0101) (human); assay: as above
HLA-B35 [4] = biological target: HLA-B35 (human); assay: assembly assay: HLA-B35 stabilisation; against sur51-59
HLA-A2 (HLA-A*0201) [5] = biological target: T1, HLA-A2 (HLA-A*0201); assay: assembly assay: HLA stabilisation, TAP-deficient cell lysate, W6/32 IP, IEF gel

B1: Sur3 (Survivin130-138) (peptide)
peptide: KVRRAIEQL
C50 (HLA-A2 (HLA-A*0201) [1]): > 100 µM

B2: Sur46Y9 (peptide)
peptide: CPTENEPDY
notes: Analogue of survivin46-54 with the C-terminal L replaced by Y
fold higher affinity relative to the native peptide (HLA-B35 [2]): 5 to 10 fold
C50 (HLA-B35 [3]): 4 µM

B3: Sur 95-103 (peptide)
peptide: ELTLGEFLK
C50 (HLA-A3 (HLA-A*0301)): > 100 µM
binding result (HLA-A11 (HLA-A*1101)): no binding (tested: 40, 4, 0.4, 0.04 µM)

B4: Sur18K10 (peptide)
peptide: RISTFKNWPK
notes: Sur18-27 with F changed to K at P10
C50 (HLA-A3 (HLA-A*0301)): 0.02 µM

B5: Sur 18-27 (peptide)
peptide: RISTFKNWPF
notes: also called Survivin18-27
binding result (HLA-A3 (HLA-A*0301)): no binding (tested: 100, 10, 1, 0.1, 0.01 µM)
binding result (HLA-A11 (HLA-A*1101)): no binding (tested: 40, 4, 0.4, 0.04 µM)

B6: Sur7 (Survivin127-135) (peptide)
peptide: TAKKVRRAI
binding result (HLA-A2 (HLA-A*0201) [1]): no binding

B7: Sur93-101 (peptide)
peptide: FEELTLGEF
notes: also called Survivin93-101
C50 (HLA-A1 (HLA-A*0101)): > 100 µM

B8: Sur93S2 (peptide)
peptide: FSELTLGEF
notes: Sur93-101 with S at position 2
C50 (HLA-A1 (HLA-A*0101)): 30 µM

B9: sur93Y9 (peptide)
peptide: FEELTLGEY
notes: Sur93-101 with Y at the C-terminus
binding result (HLA-A1 (HLA-A*0101)): no binding (tested: 40, 4, 0.4, 0.04 µM)

B10: Sur93T2 (peptide)
peptide: FTELTLGEF
notes: Sur93-101 with T at position 2
C50 (HLA-A1 (HLA-A*0101)): 1 µM

B11: SurEx3-A3-1 (peptide)
peptide: TIRRKNLRK
C50 (HLA-A3 (HLA-A*0301)): 0.5 µM

B12: Sur92-101 (peptide)
peptide: QFEELTLGEF
notes: also called Survivin92-101
C50 (HLA-A1 (HLA-A*0101)): 2 µM

B13: Sur92T2 (peptide)
peptide: QTEELTLGEF
notes: Sur92-101 with T at position 2
C50 (HLA-A1 (HLA-A*0101)): 2 µM

B14: sur92Y9 (peptide)
peptide: QFEELTLGEY
notes: Sur92-101 with Y at the C-terminus
binding result (HLA-A1 (HLA-A*0101)): no binding (tested: 40, 4, 0.4, 0.04 µM)

B15: Sur92S2 (peptide)
peptide: QSEELTLGEF
notes: Sur92-101 with S at position 2
C50 (HLA-A1 (HLA-A*0101)): 100 µM

B16: Sur51Y9 (peptide)
peptide: EPDLAQCFY
notes: Analogue of survivin51-59 with the C-terminal F replaced by Y
fold higher affinity relative to the native peptide (HLA-B35 [4]): 5 to 10 fold
C50 (HLA-B35 [3]): 1.5 µM

B17: Sur51-59 (Survivin51-59) (peptide)
peptide: EPDLAQCFF
C50 (HLA-B35 [3]): 13 µM
binding result (HLA-A1 (HLA-A*0101)): no binding (tested: 40, 4, 0.4, 0.04 µM)

B18: Sur 101-110 (peptide)
peptide: FLKLDRERAK
binding result (HLA-A3 (HLA-A*0301)): no binding (tested: 100, 10, 1, 0.1, 0.01 µM)
binding result (HLA-A11 (HLA-A*1101)): no binding (tested: 40, 4, 0.4, 0.04 µM)

B19: Sur2 (Survivin133-141) (peptide)
peptide: RAIEQLAAM
binding result (HLA-A2 (HLA-A*0201) [1]): no binding

B20: SurEx3-A3-2 (peptide)
peptide: PTIRRKNLRK
binding result (HLA-A3 (HLA-A*0301)): no binding (tested: 100, 10, 1, 0.1, 0.01 µM)

B21: Sur6-14 (Survivin6-14) (peptide)
peptide: LPPAWQPFL
C50 (HLA-B35 [3]): > 100 µM

B22: Sur54-64 (peptide)
peptide: LAQCFFCFKEL
binding result (HLA-A2 (HLA-A*0201) [5]): no binding (tested: 100, 10, 1, 0.1, 0.01 µM)

B23: Sur 84-93 (peptide)
peptide: CAFLSVKKQF
binding result (HLA-A3 (HLA-A*0301)): no binding (tested: 100, 10, 1, 0.1, 0.01 µM)
binding result (HLA-A11 (HLA-A*1101)): no binding (tested: 40, 4, 0.4, 0.04 µM)

B24: Sur47Y10 (peptide)
peptide: PTENEPDLAY
notes: Sur47-56 with Q changed to Y at P10
C50 (HLA-A1 (HLA-A*0101)): 0.4 µM

B25: Sur47-56 (peptide)
peptide: PTENEPDLAQ
notes: also called Survivin47-56
binding result (HLA-A1 (HLA-A*0101)): no binding (tested: 40, 4, 0.4, 0.04 µM)

B26: Sur 103-112 (peptide)
peptide: KLDRERAKNK
binding result (HLA-A3 (HLA-A*0301)): no binding (tested: 100, 10, 1, 0.1, 0.01 µM)
binding result (HLA-A11 (HLA-A*1101)): no binding (tested: 40, 4, 0.4, 0.04 µM)

B27: Sur4-14 (peptide)
peptide: PTLPPAWQPFL
binding result (HLA-A2 (HLA-A*0201) [5]): no binding (tested: 100, 10, 1, 0.1, 0.01 µM)

B28: Sur103-113 (peptide)
peptide: KLDRERAKNKI
binding result (HLA-A2 (HLA-A*0201) [5]): no binding (tested: 100, 10, 1, 0.1, 0.01 µM)

B29: Sur54L2 (peptide)
peptide: LLQCFFCFK
notes: Sur54-62 with A at position 2 replaced by L
C50 (HLA-A3 (HLA-A*0301)): 1 µM

B30: Sur113L2 (peptide)
peptide: ILKETNNKKK
notes: Sur113-122 with A at position 2 replaced by L
C50 (HLA-A3 (HLA-A*0301)): > 100 µM

B31: Sur 113-122 (peptide)
peptide: IAKETNNKKK
binding result (HLA-A3 (HLA-A*0301)): no binding (tested: 100, 10, 1, 0.1, 0.01 µM)
binding result (HLA-A11 (HLA-A*1101)): no binding (tested: 40, 4, 0.4, 0.04 µM)

B32: Sur9 (Survivin95-104) (peptide)
peptide: ELTLGEFLKL
notes: also called Sur95-104
C50 (HLA-A2 (HLA-A*0201) [1]): 10 µM

B33: Sur46-54 (Survivin46-54) (peptide)
peptide: CPTENEPDL
C50 (HLA-B35 [3]): 20 µM

B34: Sur49-58 (peptide)
peptide: ENEPDLAQCF
binding result (HLA-A1 (HLA-A*0101)): no binding (tested: 40, 4, 0.4, 0.04 µM)

B35: sur49Y9 (peptide)
peptide: ENEPDLAQCY
notes: Sur49-58 with Y at the C-terminus
binding result (HLA-A1 (HLA-A*0101)): no binding (tested: 40, 4, 0.4, 0.04 µM)

B36: Sur5K9 (peptide)
peptide: TLPPAWQPK
notes: Sur5-13 with the C-terminal F replaced by K
C50 (HLA-A3 (HLA-A*0301)): 2 µM

B37: Sur 53-62 (peptide)
peptide: DLAQCFFCFK
notes: also called Survivin53-62
C50 (HLA-A3 (HLA-A*0301)): 100 µM
C50 (HLA-A11 (HLA-A*1101)): 5 µM

B38: Sur13K9 (peptide)
peptide: FLKDHRISTK
notes: Sur13-22 with the C-terminal F replaced by K
binding result (HLA-A3 (HLA-A*0301)): no binding (tested: 100, 10, 1, 0.1, 0.01 µM)

B39: Sur 112-120 (peptide)
peptide: KIAKETNNK
C50 (HLA-A3 (HLA-A*0301)): 2 µM
C50 (HLA-A11 (HLA-A*1101)): 1 µM

B40: Sur 53-61 (peptide)
peptide: DLAQCFFCF
binding result (HLA-A3 (HLA-A*0301)): no binding (tested: 100, 10, 1, 0.1, 0.01 µM)
binding result (HLA-A11 (HLA-A*1101)): no binding (tested: 40, 4, 0.4, 0.04 µM)

B41: Sur53K9 (peptide)
peptide: DLAQCFFCK
notes: Sur53-61 with the C-terminal F replaced by K
binding result (HLA-A3 (HLA-A*0301)): no binding (tested: 100, 10, 1, 0.1, 0.01 µM)

B42: Sur2b-A3-1 (peptide)
peptide: RITREEHKK
binding result (HLA-A3 (HLA-A*0301)): no binding (tested: 100, 10, 1, 0.1, 0.01 µM)

B43: Sur34-43 (Survivin34-43) (peptide)
peptide: TPERMAEAGF
notes: also called sur34-46 (as printed once)
C50 (HLA-B35 [3]): > 100 µM
binding result (HLA-A1 (HLA-A*0101)): no binding (tested: 40, 4, 0.4, 0.04 µM)

B44: sur34Y9 (peptide)
peptide: TPERMAEAGY
notes: Sur34-43 with Y at the C-terminus
binding result (HLA-A1 (HLA-A*0101)): no binding (tested: 40, 4, 0.4, 0.04 µM)

B45: Sur88-98 (peptide)
peptide: SVKKQFEELTL
binding result (HLA-A2 (HLA-A*0201) [5]): no binding (tested: 100, 10, 1, 0.1, 0.01 µM)

B46: Sur38Y9 (peptide)
peptide: MAEAGFIHY
notes: Sur38-46 with C changed to Y at P9
C50 (HLA-A1 (HLA-A*0101)): 0.8 µM

B47: Sur38-46 (peptide)
peptide: MAEAGFIHC
notes: also called Survivin38-46
binding result (HLA-A1 (HLA-A*0101)): no binding (tested: 40, 4, 0.4, 0.04 µM)

B48: Sur8 (Survivin5-14) (peptide)
peptide: TLPPAWQPFL
C50 (HLA-A2 (HLA-A*0201) [1]): 30 µM

B49: Sur 112-121 (peptide)
peptide: KIAKETNNKK
C50 (HLA-A3 (HLA-A*0301)): 1 µM
C50 (HLA-A11 (HLA-A*1101)): > 100 µM

B50: Sur1 (Survivin96-104) (peptide)
peptide: LTLGEFLKL
notes: also called Sur96-104
C50 (HLA-A2 (HLA-A*0201) [1]): > 100 µM

B51: Sur1L2 (peptide)
peptide: LLLGEFLKL
notes: Analogue of survivin96-104 (Sur1) with T at position 2 replaced by L
C50 (HLA-A2 (HLA-A*0201) [1]): 1 µM

B52: Sur1M2 (peptide)
peptide: LMLGEFLKL
notes: Analogue of survivin96-104 (Sur1) with T at position 2 replaced by M; also called modified survivin96-104
C50 (HLA-A2 (HLA-A*0201) [1]): 1 µM

B53: Sur6 (Survivin101-109) (peptide)
peptide: FLKLDRERA
C50 (HLA-A2 (HLA-A*0201) [1]): 30 µM

B54: Sur14-22 (peptide)
peptide: LKDHRISTF
binding result (HLA-A1 (HLA-A*0101)): no binding (tested: 40, 4, 0.4, 0.04 µM)

B55: sur14Y9 (peptide)
peptide: LKDHRISTY
notes: Sur14-22 with Y at the C-terminus
binding result (HLA-A1 (HLA-A*0101)): no binding (tested: 40, 4, 0.4, 0.04 µM)

B56: Sur5 (Survivin88-96) (peptide)
peptide: SVKKQFEEL
binding result (HLA-A2 (HLA-A*0201) [1]): no binding

B57: Sur10 (Survivin126-135) (peptide)
peptide: ETAKKVRRAI
binding result (HLA-A2 (HLA-A*0201) [1]): no binding

Source: patent publication USRE48522 (SURVAC, dated 2021)
